# B1: Wnt5a (ligand, UniProt P41221 62-380, looked up)
# chain: IIGAQPLCSQLAGLSQGQKKLCHLYQDHMQYIGEGAKTGIKECQYQFRHRRWNCSTVDNTSVFGRVMQIGSRETAFTYAVSAAGVVNAMSRACREGELSTCGCSRAARPKDLPRDWLWGGCGDNIDYGYRFAKEFVDARERERIHAKGSYESARILMNLHNNEAGRRTVYNLADVACKCHGVSGSCSLKTCWLQLADFRKVGDALKEKYDSAAAMRLNSRGKLVQVNSRFNSPTTQDLVYIDPSPDYCVRNESTGSLGTQGRLCNKTSEGMDGCELMCCGRGYDQFKTVQTERCHCKFHWCCYVKCKKCTEIVDQFVCK
# notes: Wnt5a, purified protein; also called purified Wnt5a; source: purified
# B2: Wnt3a (ligand, UniProt P56704 19-352, looked up)
# chain: SYPIWWSLAVGPQYSSLGSQPILCASIPGLVPKQLRFCRNYVEIMPSVAEGIKIGIQECQHQFRGRRWNCTTVHDSLAIFGPVLDKATRESAFVHAIASAGVAFAVTRSCAEGTAAICGCSSRHQGSPGKGWKWGGCSEDIEFGGMVSREFADARENRPDARSAMNRHNNEAGRQAIASHMHLKCKCHGLSGSCEVKTCWWSQPDFRAIGDFLKDKYDSASEMVVEKHRESRGWVETLRPRYTYFKVPTERDLVYYEASPNFCEPNPETGSFGTRDRTCNVSSHGIDGCDLLCCGRGHNARAERRREKCRCVFHWCCYVSCQECTRVYDVHTCK
# notes: Wnt3a, purified protein; also called purified Wnt3a; source: purified
# B3: Wnt11 (ligand, UniProt O96014 25-354, looked up)
# chain: IKWLALSKTPSALALNQTQHCKQLEGLVSAQVQLCRSNLELMHTVVHAAREVMKACRRAFADMRWNCSSIELAPNYLLDLERGTRESAFVYALSAAAISHAIARACTSGDLPGCSCGPVPGEPPGPGNRWGGCADNLSYGLLMGAKFSDAPMKVKKTGSQANKLMRLHNSEVGRQALRASLEMKCKCHGVSGSCSIRTCWKGLQELQDVAADLKTRYLSATKVVHRPMGTRKHLVPKDLDIRPVKDSELVYLQSSPDFCMKNEKVGSHGTQDRQCNKTSNGSDSCDLMCCGRGYNPYTDRVVERCHCKYHWCCYVTCRRCERTVERYVCK
# notes: Wnt11, purified protein; also called purified Wnt11; source: purified
# Target: T1, low-density lipoprotein (LDL) receptor-related protein 1 (LRP1), purified human full-length (human, UniProt Q07954 20-4544)
# T1 construct: LRP1, human, purified full-length protein coated onto microtiter plates; also called full-length LRP1; Full-length sLRP1; source: purified
# T1 sequence (Q07954 20-4544): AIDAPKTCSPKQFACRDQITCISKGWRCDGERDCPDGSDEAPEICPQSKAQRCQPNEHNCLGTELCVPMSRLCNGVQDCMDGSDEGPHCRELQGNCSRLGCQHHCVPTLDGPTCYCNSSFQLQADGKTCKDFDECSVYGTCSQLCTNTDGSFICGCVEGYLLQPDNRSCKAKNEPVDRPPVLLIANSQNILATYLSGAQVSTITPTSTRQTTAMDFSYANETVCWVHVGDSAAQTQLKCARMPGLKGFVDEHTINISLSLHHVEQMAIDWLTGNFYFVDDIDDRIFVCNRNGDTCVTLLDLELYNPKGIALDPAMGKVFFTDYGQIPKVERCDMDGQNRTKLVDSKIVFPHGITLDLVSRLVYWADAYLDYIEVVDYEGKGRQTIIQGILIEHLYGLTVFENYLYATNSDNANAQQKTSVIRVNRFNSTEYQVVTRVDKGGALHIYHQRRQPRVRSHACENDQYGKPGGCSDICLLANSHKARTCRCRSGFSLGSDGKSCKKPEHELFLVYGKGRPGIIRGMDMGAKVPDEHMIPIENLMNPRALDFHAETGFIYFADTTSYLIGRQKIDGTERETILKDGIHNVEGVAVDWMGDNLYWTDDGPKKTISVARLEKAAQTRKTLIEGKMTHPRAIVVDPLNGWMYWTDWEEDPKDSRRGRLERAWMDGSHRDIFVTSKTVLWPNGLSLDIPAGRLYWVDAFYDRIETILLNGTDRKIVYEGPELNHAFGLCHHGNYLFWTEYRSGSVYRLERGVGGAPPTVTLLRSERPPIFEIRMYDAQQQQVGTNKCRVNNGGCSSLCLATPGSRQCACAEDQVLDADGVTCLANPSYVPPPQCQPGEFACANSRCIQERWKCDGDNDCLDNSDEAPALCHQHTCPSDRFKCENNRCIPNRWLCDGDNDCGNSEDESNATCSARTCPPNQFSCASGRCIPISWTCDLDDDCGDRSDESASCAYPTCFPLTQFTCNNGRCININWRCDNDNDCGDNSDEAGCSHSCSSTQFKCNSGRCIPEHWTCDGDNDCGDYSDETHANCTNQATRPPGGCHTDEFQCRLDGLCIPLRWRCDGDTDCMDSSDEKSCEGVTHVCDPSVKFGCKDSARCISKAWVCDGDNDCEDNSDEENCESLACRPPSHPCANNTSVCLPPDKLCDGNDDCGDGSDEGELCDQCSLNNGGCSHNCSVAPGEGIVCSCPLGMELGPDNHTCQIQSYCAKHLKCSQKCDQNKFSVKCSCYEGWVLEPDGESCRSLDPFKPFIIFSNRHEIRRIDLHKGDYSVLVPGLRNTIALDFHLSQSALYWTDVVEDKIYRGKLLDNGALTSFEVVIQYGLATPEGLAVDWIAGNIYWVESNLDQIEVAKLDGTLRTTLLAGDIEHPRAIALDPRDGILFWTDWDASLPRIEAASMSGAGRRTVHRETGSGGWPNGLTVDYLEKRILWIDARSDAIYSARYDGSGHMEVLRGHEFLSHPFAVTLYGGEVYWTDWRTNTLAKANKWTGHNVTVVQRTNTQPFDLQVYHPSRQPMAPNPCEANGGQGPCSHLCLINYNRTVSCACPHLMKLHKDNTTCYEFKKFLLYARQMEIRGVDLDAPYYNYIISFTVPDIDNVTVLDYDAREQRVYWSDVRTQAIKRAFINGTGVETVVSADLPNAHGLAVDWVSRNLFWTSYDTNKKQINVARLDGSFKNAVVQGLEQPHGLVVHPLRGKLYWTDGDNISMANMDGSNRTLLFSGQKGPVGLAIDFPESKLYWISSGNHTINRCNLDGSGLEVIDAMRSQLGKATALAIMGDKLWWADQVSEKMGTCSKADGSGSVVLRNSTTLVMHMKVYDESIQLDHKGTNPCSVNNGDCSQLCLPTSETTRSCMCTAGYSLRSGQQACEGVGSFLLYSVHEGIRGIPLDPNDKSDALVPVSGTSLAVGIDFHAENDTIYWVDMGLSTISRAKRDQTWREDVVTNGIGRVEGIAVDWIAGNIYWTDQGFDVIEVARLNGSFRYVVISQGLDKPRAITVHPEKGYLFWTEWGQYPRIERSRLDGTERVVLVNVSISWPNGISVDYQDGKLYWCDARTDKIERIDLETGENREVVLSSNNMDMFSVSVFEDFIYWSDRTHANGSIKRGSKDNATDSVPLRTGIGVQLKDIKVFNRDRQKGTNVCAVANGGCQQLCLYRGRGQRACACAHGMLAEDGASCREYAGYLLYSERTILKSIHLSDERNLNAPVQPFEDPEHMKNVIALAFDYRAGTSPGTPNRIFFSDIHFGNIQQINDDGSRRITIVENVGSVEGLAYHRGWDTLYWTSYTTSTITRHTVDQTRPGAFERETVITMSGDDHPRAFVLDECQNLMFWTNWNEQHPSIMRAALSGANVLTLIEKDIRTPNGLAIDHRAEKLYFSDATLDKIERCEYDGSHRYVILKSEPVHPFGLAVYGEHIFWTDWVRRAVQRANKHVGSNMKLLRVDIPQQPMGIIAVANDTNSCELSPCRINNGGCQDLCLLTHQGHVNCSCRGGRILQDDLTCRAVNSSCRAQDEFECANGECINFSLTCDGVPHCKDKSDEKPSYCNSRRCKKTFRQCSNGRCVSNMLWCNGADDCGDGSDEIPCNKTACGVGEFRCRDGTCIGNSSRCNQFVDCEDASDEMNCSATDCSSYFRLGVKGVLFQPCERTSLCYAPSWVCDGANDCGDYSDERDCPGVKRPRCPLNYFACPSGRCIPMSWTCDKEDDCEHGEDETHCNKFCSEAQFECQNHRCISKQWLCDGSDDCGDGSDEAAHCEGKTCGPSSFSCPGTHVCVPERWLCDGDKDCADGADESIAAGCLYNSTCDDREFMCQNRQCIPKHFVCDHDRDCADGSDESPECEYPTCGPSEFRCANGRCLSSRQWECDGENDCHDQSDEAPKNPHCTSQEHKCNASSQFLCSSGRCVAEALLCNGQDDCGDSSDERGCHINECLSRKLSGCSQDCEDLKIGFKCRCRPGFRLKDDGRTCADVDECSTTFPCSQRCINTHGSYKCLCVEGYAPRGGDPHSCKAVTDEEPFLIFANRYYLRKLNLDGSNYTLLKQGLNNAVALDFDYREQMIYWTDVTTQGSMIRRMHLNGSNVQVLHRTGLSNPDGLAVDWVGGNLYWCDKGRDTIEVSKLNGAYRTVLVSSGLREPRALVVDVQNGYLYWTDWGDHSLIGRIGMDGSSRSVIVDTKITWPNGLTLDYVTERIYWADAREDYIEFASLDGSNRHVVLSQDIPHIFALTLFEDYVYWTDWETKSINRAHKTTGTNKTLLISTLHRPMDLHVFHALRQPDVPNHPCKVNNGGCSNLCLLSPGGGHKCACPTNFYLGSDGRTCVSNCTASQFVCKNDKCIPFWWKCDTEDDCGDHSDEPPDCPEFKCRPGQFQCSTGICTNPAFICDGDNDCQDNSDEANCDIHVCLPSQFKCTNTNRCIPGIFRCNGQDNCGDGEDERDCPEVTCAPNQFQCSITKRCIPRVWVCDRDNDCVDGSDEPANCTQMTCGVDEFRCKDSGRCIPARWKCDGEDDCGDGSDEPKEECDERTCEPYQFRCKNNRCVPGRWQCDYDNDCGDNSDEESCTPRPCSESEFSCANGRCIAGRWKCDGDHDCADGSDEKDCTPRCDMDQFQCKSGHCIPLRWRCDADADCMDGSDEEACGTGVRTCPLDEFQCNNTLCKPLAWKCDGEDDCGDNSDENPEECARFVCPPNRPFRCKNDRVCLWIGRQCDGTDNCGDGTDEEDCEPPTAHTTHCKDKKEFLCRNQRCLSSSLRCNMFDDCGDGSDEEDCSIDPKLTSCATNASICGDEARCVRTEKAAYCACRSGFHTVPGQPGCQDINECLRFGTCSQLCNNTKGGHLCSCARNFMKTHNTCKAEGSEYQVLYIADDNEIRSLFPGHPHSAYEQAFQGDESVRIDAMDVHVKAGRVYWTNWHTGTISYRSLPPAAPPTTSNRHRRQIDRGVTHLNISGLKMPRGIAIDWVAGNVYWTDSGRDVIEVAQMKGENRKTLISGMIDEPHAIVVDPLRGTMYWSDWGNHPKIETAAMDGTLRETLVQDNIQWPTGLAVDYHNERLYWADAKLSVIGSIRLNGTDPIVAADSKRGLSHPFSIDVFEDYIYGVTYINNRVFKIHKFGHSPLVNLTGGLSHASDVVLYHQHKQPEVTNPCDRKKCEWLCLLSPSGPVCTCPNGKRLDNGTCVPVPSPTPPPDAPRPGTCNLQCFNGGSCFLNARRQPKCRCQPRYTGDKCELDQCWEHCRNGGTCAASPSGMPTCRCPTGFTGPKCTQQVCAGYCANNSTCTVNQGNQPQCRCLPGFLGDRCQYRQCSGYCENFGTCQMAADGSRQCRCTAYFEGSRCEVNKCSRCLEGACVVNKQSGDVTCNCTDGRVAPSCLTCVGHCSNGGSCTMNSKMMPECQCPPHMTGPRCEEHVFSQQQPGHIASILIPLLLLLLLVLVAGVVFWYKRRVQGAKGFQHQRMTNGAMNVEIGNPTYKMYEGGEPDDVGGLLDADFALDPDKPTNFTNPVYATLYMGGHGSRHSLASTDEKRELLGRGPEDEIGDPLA
# Test: ELISA; solid-phase binding assay; human full-length LRP1 (10 nmol/L) coated overnight at 4 °C onto microtiter plates in 50 mmol/L Tris-HCl (pH 7.5)/150 mmol/L NaCl/10 mmol/L CaCl2; 0-200 nmol/L Wnt in 5% BSA blocking solution, 30 min at RT; bound Wnt detected with a specific antibody; signal of wells without LRP1 subtracted; apparent KD (K_D,app), extrapolated from a one-phase decay nonlinear fit
# Details: both partners purified
row,Kd [nM],Binder
1,31,B1
2,> 200,B2
3,42,B3

# — article PMC11770177, “Skeletal progenitor LRP1 deficiency causes severe and persistent skeletal defects with Wnt pathway dysregulation” (Bone Research, 2025)
